Experiments:
[1] = UGT enzyme reaction with quercetin (recombinant UGTs, HPLC); format: biochemical, Arabidopsis; conditions: 0.5 mM quercetin, 5 mM UDP-glucose, 30° C.; for Specific activity (nkat/mg protein) 3-O-glc: quercetin glucosylated at 3-OH; for Specific activity (nkat/mg protein) 3′-O-glc: quercetin glucosylated at 3′-OH; for Specific activity (nkat/mg protein) 4′-O-glc: quercetin glucosylated at 4′-OH; for Specific activity (nkat/mg protein) 7-O-glc: quercetin glucosylated at 7-OH
How it was run: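 Recombinant Arabidopsis UGTs (2 μg) incubated with 0.5 mM quercetin and 5 mM UDP-glucose in 100 mM Tris-HCl pH 7.0 at 30 °C for 1 h. Quercetin glucosides separated from aglycone by reverse-phase C18 HPLC (acetonitrile gradient, 0.1% TFA), detected at 370 nm.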

[2] = UGT enzyme reaction with cytokinins; format: biochemical; conditions: for Cytokinin products formed by the UGTs: 7-N-glucoside / Cytokinin products formed by the UGTs: 9-N-glucoside: cytokinins, 0.5 mM, 30° C., 3 h
Method: The assay mix (200 μl) contained 2 μg of recombinant protein, 100 mM Tris-HCl, pH 8.0, 5 mM UDP-glucose 0.5 mM ATP, 50 mM MgCl2, and 0.5 mM of cytokinin. The reaction was carried out at 30° C. for 3 h, and was quick-frozen and stored at −20° C. prior to the reverse-phase HPLC analysis
Reverse-phase HPLC (SpectraSYSTEM HPLC systems and UV6000LP Photodiode Array Detector, ThermoQuest) analysis was carried using a Columbus 5μ C18 column (250×4.60 mm, PHENOMENEX). Quercetin glucosides were separated from the aglycone by a linear gradient of 10-75% acetonitrile in H2O (all solution contained 0.1% trifluoroacetic acid) at 1 ml/mm over 20 mm and monitored at 370 nm. Cytokinin glucosides were separated from their aglycone by a liner gradient of 10-100% methanol in H2O (for N6-isopentenyladenine (iP), N6-benzyladenine and kinetin) or 10-60% methanol in H2O (for trans-zeatin and dihydrozeatin) at 1 ml/min over 20 mm. All solution contained 0.25% acetic acid and 0.04% triethylamine, trifluoroacetic acid. The separation was monitored at 206 nm and 252 nm. The identity of the products was confirmed by comparison with authentic gluco sides.
• 1. 7-N-glucoside (76C1, 76C2) • 2. 9-N-glucoside (76C1, 76C2) • 3. O-glucoside (only apply to trans-Zeatin and dihydrozeatin) (85A1 for trans-Zeatin; 85A1 and 73C5 for dihydrozeatin) Large Scale Fermentation

[3] = Whole-cell biocatalyst assay, E. coli expressing UGT in culture medium; format: cell-based; conditions: E. coli, 2x YT medium, 0.1 mM IPTG, 0.1 mM quercetin, 24 h, no added UDP-glucose
Method: FIG. 14 Whole-cell biocatalyst assay using UGT71C1. E. coli cells expressing recombinant were used in the biocatalyst assay. After incubation with 0.1 mM quercetin and 0.1 mM IPTG, cells were collected by centrifugation, extracted with 80% methanol and both the cell extracts (pellet) and culture medium (supernatant) were analysed using HPLC. (A) Changes in the combined amounts of aglycone/glucoside over a time-course of 0-48 h. (B) Changes in the level of different glucosides and aglycone in the culture medium over the same time-course.
Using the foundation established in the preceding example, we went on to investigate the potential of E. coli expressing plant UGTs as whole-cell biocatalysts to synthesise glucosides of quercetin. In the first instance, we used E. coli grown in 75 ml of standard culture medium. […] Table 2 describes results in which 7 different UGTs are expressed in E. coli and the identity and quantity of different glucosides recovered in the medium were analysed by HPLC. […] There was considerable variation in the level of different glucosides synthesised by the cells, although even under these non-optimised conditions, each of the four monoglucosides and two di-O-glucosides could be formed.

B1: UGT73C5: Arabidopsis recombinant glycosyltransferase, FIG. 11 (protein, listed as Arabidopsis thaliana)
chain: MVSETTKSSPLHFVLFPFMAQGHMIPMVDIARLLAQRGVIITIVTTPHNAARFKNVLNRAIESGLPINLVQVKFPYLEAGLQEGQENIDSLDTMERMIPFFKAVNFLEEPVQKLIEEMNPRPSCLISDFCLPYTSKIAKKFNIPKILFHGMGCFCLLCMHVLRKNREILDNLKSDKELFTVPDFPDRVEFTRTQVPVETYVPAGDWKDIFDGMVEANETSYGVIVNSFQELEPAYAKDYKEVRSGKAWTIGPVSLCNKVGADKAERGNKSDIDQDECLKWLDSKKHGSVLYVCLGSICNLPLSQLKELGLGLEESQRPFIWVIRGWEKYKELVEWFSESGFEDRIQDRGLLIKGWSPQMLILSHPSVGGFLTHCGWNSTLEGITAGLPLLTWPLFADQFCNEKLVVEVLKAGVRSGVEQPMKWGEEEKIGVLVDKEGVKKAVEELMGESDDAKERRRRAKELGDSAHKAVEEGGSSHSNISFLLQDIMELAEPNN
- Specific activity (nkat/mg protein) 3-O-glc [1]: — (Activity lower than 0.02 nkat/mg protein has been considered as trace activity and is not shown in the Table.)
- Specific activity (nkat/mg protein) 3′-O-glc [1]: — (Activity lower than 0.02 nkat/mg protein has been considered as trace activity and is not shown in the Table.)
- Specific activity (nkat/mg protein) 4′-O-glc [1]: 0.25 nkat/mg protein
- Specific activity (nkat/mg protein) 7-O-glc [1]: 0.11 nkat/mg protein
- Cytokinin products formed by the UGTs: O-glucoside ([2]; substrate dihydrozeatin): O-glucoside

B2: UGT78D2: Arabidopsis recombinant glycosyltransferase, FIG. 5 (protein, listed as Arabidopsis thaliana)
chain: MTKPSDPTRDSHVAVLAFPFGTHAAPLLTVTRRLASASPSTVFSFFNTAQSNSSLFSSGDEADRPANIRVYDIADGVPEGYVFSGRPQEAIELFLQAAPENFRREIAKAETEVGTEVKCLMTDAFFWFAADMATEINASWIAFWTAGANSLSAHLYTDLIRETIGVKEVGERMEETIGVISGMEKIRVKDTPEGVVFGNLDSVFSKMLHQMGLALPRATAVFINSFEDLDPTLTNNLRSRFKRYLNIGPLGLLSSTLQQLVQDPHGCLAWMEKRSSGSVAYISFGTVMTPPPGELAAIAEGLESSKVPFVWSLKEKSLVQLPKGFLDRTREQGIVVPWAPQVELLKHEATGVFVTHCGWNSVLESVSGGVPMICRPFFGDQRLNGRAVEVVWEIGMTIINGVFTKDGFEKCLDKVLVQDDGKKMKCNAKKLKELAYEAVSSKGRSSENFRGLLDAVVNII
- Specific activity (nkat/mg protein) 3-O-glc [1]: 31.60 nkat/mg protein
- Specific activity (nkat/mg protein) 3′-O-glc [1]: — (Activity lower than 0.02 nkat/mg protein has been considered as trace activity and is not shown in the Table.)
- Specific activity (nkat/mg protein) 4′-O-glc [1]: — (Activity lower than 0.02 nkat/mg protein has been considered as trace activity and is not shown in the Table.)
- Specific activity (nkat/mg protein) 7-O-glc [1]: — (Activity lower than 0.02 nkat/mg protein has been considered as trace activity and is not shown in the Table.)
- Culture medium (μg/ml in supernatant) 3-O-glc [3]: 6.83 µg/mL

B3: UGT85A1: glycosyltransferase, FIG. 12, glucosylates cytokinins (protein, listed as Arabidopsis thaliana)
chain: MGSQIIHNSQKPHVVCVPYPAQGHINPMMRVAKLLHARGFYVTFVNTVYNHNRFLRSRGSNALDGLPSFRFESIADGLPETDMDATQDITALCESTMKNCLAPFRELLQRINAGDNVPPVSCIVSDGCMSFTLDVAEELGVPEVLFWTTSGCAFLAYLHFYLFIEKGLCPLKDESYLTKEYLEDTVIDFIPTMKNVKLKDIPSFIRTTNPDDVMISFALRETERAKRASAIILNTFDDLEHDVVHAMQSILPPVYSVGPLHLLANREIEEGSEIGMMSSNLWKEEMECLDWLDTKTQNSVIYINFGSITVLSVKQLVEFAWGLAGSGKEFLWVIRPDLVAGEEAMVPPDFLMETKDRSMLASWCPQEKVLSHPAIGGFLTHCGWNSILESLSCGVPMVCWPFFADQQMNCKFCCDEWDVGIEIGGDVKREEVEAVVRELMDGEKGKKMREKAVEWQRLAEKATEHKLGSSVMNFETVVSKFLLGQKSQD
- Cytokinin products formed by the UGTs: O-glucoside ([2]; substrate dihydrozeatin): O-glucoside
- Cytokinin products formed by the UGTs: O-glucoside ([2]; substrate trans-Zeatin): O-glucoside

B4: UGT76C2: glycosyltransferase, FIG. 10, glucosylates cytokinins (protein, listed as Arabidopsis thaliana)
chain: MEEKRNGLRVILFPLPLQGCINPMLQLANILHVRGFSITVIHTRFNAPKASSHPLFTFLQIPDGLSETEIQDGVMSLLAQINLNAESPFRDCLRKVLLESKESERVTCLIDDCGWLFTQSVSESLKLPRLVLCTFKATFFNAYPSLPLIRTKGYLPVSESEAEDSVPEFPPLQKRDLSKVFGEFGEKLDPFLHAVVETTIRSSGLIYMSCEELEKDSLTLSNEIFKVPVFAIGPFHSYFSASSSSLFTQDETCILWLDDQEDKSVIYVSLGSVVNITETEFLEIACGLSNSKQPFLWVVRPGSVLGAKWIEPLSEGLVSSLEEKGKIVKWAPQQEVLAHRATGGFLTHNGWNSTLESICEGVPMICLPGGWDQMLNSRFVSDIWKIGIHLEGRIEKKEIEKAVRVLMEESEGNKIRERMKVLKDEVEKSVKQGGSSFQSIETLANHILLL
- Cytokinin products formed by the UGTs: 7-N-glucoside [2]: 7-N-glucoside
- Cytokinin products formed by the UGTs: 9-N-glucoside [2]: 9-N-glucoside

B5: UGT76C1: glycosyltransferase, FIG. 9, glucosylates cytokinins (protein, listed as Arabidopsis thaliana)
chain: MEKRNERQVILFPLPLQGCINPMLQLAKILYSRGFSITIIHTRFNAPKSSDHPLFTFLQIRDGLSESQTQSRDLLLQLTLLNNNCQIPFRECLAKLIKPSSDSGTEDRKISCVIDDSGWVFTQSVAESFNLPRFVLCAYKFSFFLGHFLVPQIRREGFLPVPDSEADDLVPEFPPLRKKDLSRIMGTSAQSKPLDAYLLKILDATKPASGIIVMSCKELDHDSLAESNKVFSIPIFPIGPFHIHDVPASSSSLLEPDQSCIPWLDMRETRSVVYVSLGSIASLNESDFLEIACGLRNTNQSFLWVVRPGSVHGRDWIESLPSGFMESLDGKGKIVRWAPQLDVLAHRATGGFLTHNGWNSTLESICEGVPMICLPCKWDQFVNARFISEVWRVGIHLEGRIERREIERAVIRLMVESKGEEIRGRIKVLRDEVRRSVKQGGSSYRSLDELVDRISIIIEPLVPT
- Cytokinin products formed by the UGTs: 7-N-glucoside [2]: 7-N-glucoside
- Cytokinin products formed by the UGTs: 9-N-glucoside [2]: 9-N-glucoside

From patent US7662583B2, “Bioreactor containing cells expressing glycosyltransferase nucleic acids isolatable from Arabidopsis” (The University of York, priority 2003, dated 2010)
